B1: DCAF4 (parent)
chain: PGIDRPGMLCSFRIPGAWSCAWSL

Variants of: B1
Test: protein stability index of a GFP-peptide fusion (GPS, HEK-293T) (PSI 1-6); higher = more stable
Conditions: c terminus: a fixed tail appended
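Note: lentivirally expressed fusions sorted by FACS into six bins by GFP to DsRed ratio, PSI derived from sequencing read proportions per bin multiplied by bin number.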

Protein stability index: each site, then its substitutions
A17: F 2.16, Y 2.95, T 1.77, L 2.79, S 4.12, E 3.28, Q 2.13, R 3, G 3.29, C 2.26, N 2.48, P 1.61, I 2.79, D 3.01, M 3.08
S19: R 3.46, Q 2.74, I 2.23, M 2.51, Y 3.36, K 4.35, L 2.61, D 2.11, H 1.6, E 2.19, V 1.55, P 1.66, A 3.16, T 2.96, G 2.78, W 4.15
W22: L 2.58, M 3.58, Q 3.24, N 1.6, F 2.7, A 2.54, I 3.25, D 1.5, E 2.01, R 2.27, C 1.62, T 1.95, H 1.74, V 1.44, G 1.95, P 1.19, S 1.33, K 1.84
I14: E 1.76, G 1.54, F 2.32, W 2.12, A 1.77, H 2.46, D 2.83, R 3.12, L 2.47, N 1.5, S 2.65, Y 2.14, Q 2.64, C 1.79, M 1.82, K 1.68
P1: N 3.47, M 3.39, R 2.46, S 3.17, K 1.96, Y 3.48, L 3.17, Q 3.03, T 3.59
L9: H 2.92, P 2.5, V 2.85, G 1.77, Y 2.31, K 3.08, W 2.82, E 2.62, R 3.61, D 3.26, N 2.9, I 3.09, F 2.7, S 2.32, T 1.7, Q 1.76
S11: Q 2.82, E 2.68, R 3.98, M 2.95, F 3.19, Y 3.16, T 1.56, G 3.07, A 3.01, V 1.85, C 2.19, H 3.42, K 2.81, D 2.44, P 3.14, L 2.81
A21: P 2.54, R 2.22, W 2.83, S 2.99, F 2.37, Y 4.31, G 3.7, T 2.69, N 2.85, K 3.64, D 3.1, C 2.48, M 2.96, V 1.91, L 2.32
D4: C 2.61, Y 2.27, P 2.56, T 2.56, M 1.91, E 2.38, F 2.74, Q 2.42, W 2.65, I 3.29, N 2.05
G2: P 1.94, I 2.26, S 2.55, H 3.15, K 2.19, L 2.54, Q 2.39, T 2.59, M 3.72, F 1.6, V 1.85, D 3.96, C 3.1, W 1.83, R 3.78, Y 3
W18: S 2.36, H 2.73, D 1.76, T 2.63, M 2.71, C 2.32, V 3.98, Q 2.21, P 2.33, E 1.68, Y 3.06, A 3.12, L 2.87, G 2.18, R 3.25, K 2.9, N 2.54
S23: D 2.39, A 2.91, E 3.03, C 1.89
P6: Y 3.44, C 2.65, R 3.89, S 2.83, V 2.93, N 2.76, K 2.83, G 3.28, E 1.44, H 2.66, F 3.41, A 3.48, M 4.05, T 2.65, Q 3.62
C10: I 3.54, F 3.57, E 2.82, A 1.68, W 3.64, G 2.12, D 2.17, Q 1.58, S 2.9, Y 3.23, N 2.65, K 2.77, P 2.2, H 3.98, M 3.1
M8: A 2.31, Y 1.56, H 2.83, K 2.34, C 2.66, I 3, S 3.62, E 2.42, R 1.99, N 2.11, G 3.31, L 3.01, T 3.54
R5: K 2.04, E 3.11, L 2.46, D 3.46, N 3.74, P 2.75, Y 2.76, Q 3.37, V 1.94, C 2.89, M 3.37, A 2.47, F 3.57, G 2.74, I 1.87
G7: H 2.09, K 2.7, W 2.23, V 2.84, Y 2.28, N 2.67, P 2.83, T 3.46, D 2.11, F 4.52, I 3.13, R 2.05, M 2.31, A 2.7, S 3.09, Q 2.63
G16: W 1.49, I 3.24, V 2.81, D 2.18, F 2.83, H 4.24, N 2.91, K 3.56, R 2.68, L 3.68, E 3.31, C 2.39, Y 2.84, S 3.06, T 3.2, Q 2.3, P 3.49
R13: L 3.69, C 2.03, T 3.39, G 2.33, D 1.97, E 3.65, H 2.34, P 3.03, I 3.22, Y 2.9, V 2.94, F 2.68, S 2.59
C20: G 2.95, I 2.77, T 2.61, F 4.57, L 3.41, V 2.58, E 1.7, P 3.17, K 1.81, D 2.11, R 1.52, N 2.15, W 3.93, Q 1.56, M 3.55, H 2.41, S 3.33
P15: I 2.28, N 2.56, Y 3.12, C 2.96, L 2.04, M 2.89, H 3.44, F 3.83, V 1.8, S 2.74, E 3.99, K 3.5, Q 4.94
I3: P 2.33, N 4.44, W 3.75, Q 3.25, M 2.5, G 1.51, A 2.91, V 2.56, D 1.96, E 4.15, S 2.97, K 2.3, H 2.39, F 2.26, L 3.31, T 2.93
F12: N 2.87, T 2.12, K 1.79, Q 2.67, D 2.19, W 4.14, C 3.41, S 2.7, I 2.26, V 3.38, G 2.29, E 2.5, L 2.62, H 2.68, P 3.71

Reference: the supplement of paper PMC10567573
